Measurements taken from paper PMC4368098, “DICER-ARGONAUTE2 Complex in Continuous Fluorogenic Assays of RNA Interference Enzymes”.

B1: D10 (dsRNA)
RNA 1: CCUGAGGAAGAACUAAAUCCAAAGAUA
RNA 2: UCUUUGGAUUUAGUUCUUCCUCAGG
B2: D12 (dsRNA)
RNA 1: UACUCAGGACACAGAUUUAGACUUGGA
RNA 2: CAAGUCUAAAUCUGUGUCCUGAGUA
B3: D25 (dsRNA)
RNA 1: GCACCCCCACCUCUGGACUUGCCUUUC
RNA 2: AAGGCAAGUCCAGAGGUGGGGGUGC
B4: D08 (dsRNA)
RNA 1: CCAGAAGAACUUUUAGGCCGCUCAAUU
RNA 2: UUGAGCGGCCUAAAAGUUCUUCUGG
B5: D11 (dsRNA)
RNA 1: ACCUGAGCCUAAUAGUCCCAGUGAAUA
RNA 2: UUCACUGGGACUAUUAGGCUCAGGU
B6: D09 (dsRNA)
RNA 1: CAGACACCUAGUCCUUCCGAUGGAAGC
RNA 2: UUCCAUCGGAAGGACUAGGUGUCUG
B7: D01 (dsRNA)
RNA 1: ACCGGUUGAAUCUUCAGAUAUGAAA
RNA 2: UUUCAUAUCUGAAGAUUCAACCGGUUU
B8: D02 (dsRNA)
RNA 1: GCUGAUUUGUGAACCCAUUCCUCAC
RNA 2: GUGAGGAAUGGGUUCACAAAUCAGCAC
B9: D07 (dsRNA)
RNA 1: GGAUAAAAUUCUCAAUUCAGAGAAA
RNA 2: UUUCUCUGAAUUGAGAAUUUUAUCCAA
B10: D06 (dsRNA)
RNA 1: GGAUAGUGAUAUGGUCAAUGAAUUC
RNA 2: GAAUUCAUUGACCAUAUCACUAUCCAC
B11: D04 (dsRNA)
RNA 1: GUUCCUGAGGAAGAACUAAAUCCAA
RNA 2: UUGGAUUUAGUUCUUCCUCAGGAACUG
B12: D05 (dsRNA)
RNA 1: GGAACAUGAUGGUUCACUUUUUCAA
RNA 2: UUGAAAAAGUGAACCAUCAUGUUCCAU
B13: D03 (dsRNA)
RNA 1: CCGGUUGAAUCUUCAGAUAUGAAAA
RNA 2: UUUUCAUAUCUGAAGAUUCAACCGGUU

molecular target: DICER;ARGONAUTE2 (AGO2) (human;human, UniProt Q9UPY3;Q9UKV8 1-1922;1-859, |); assay: competition (fluorogenic siRNA processing); 80 nM BoPsi664, 30 nM each enzyme; Assay Buffer with 1 mM free Mg2+ (full composition not in the material), 37 C; indirect read-out by competitive inhibition of fluorogenic siRNA processing, no d; settings: protein: recombinant;recombinant, tags: C-terminal 6xHis with TEV site, tag removed by TEV;N-terminal 6xHis with TEV site, copies: 1;1, 3' overhang 2 nt on strand 1, other end blunt

B1 and B2 are within 1.5-fold of each other in IC50: 633 nM for the first, 453 nM for the second.

B3 and B4 are within 1.5-fold of each other in IC50: 796 nM for the first, 1060 nM for the second.

Compared with B5, B6 is 2.1-fold higher in IC50: 364 nM for the first, 767 nM for the second. The first is the more potent here.

same assay, conditions: protein: recombinant;recombinant, tags: C-terminal 6xHis with TEV site, tag removed by TEV;N-terminal 6xHis with TEV site, copies: 1;1, 3' overhang 2 nt on strand 2, other end blunt

First: B7
Second: B8
The IC50 of the first is 2.5-fold lower: 56 nM for the first, 142 nM for the second. The first is the more potent here.

Compared with B9, B10 is 1.7-fold higher in IC50: 282 nM for the first, 474 nM for the second.

B11 and B12 are within 1.5-fold of each other in IC50: 180 nM for the first, 209 nM for the second.

B13 showed an IC50 of 150 nM.
